Results from US8361965B2, “Recombinant chimeric protein of neutrophil inhibitory factor and hirugen, and pharmaceutical composition thereof” (Lunan Pharmaceutical Group Corporation, priority 2008, dated 2013).

Legend:
[1] = tested on: experimental cerebral hematoma in rats; experiment: effects on experimental cerebral hematoma in rats; assay type: in vivo, SD rats; set-up: key to behavioral score: neurologic defect score, full score 11; higher = more severe disorder; conditions: 2 mg/kg bid caudal vein; for behavioral score: full score 11
Experimental: SD rats were randomly divided into 4 groups (8 animals per group), including model group, NHH group, NIF group and TNHH group. The rats in each group were anesthetized by chloral hydrate, and then 0.1 ml blood was collected by amputation of tail. The rats were fixed in a stereotaxic apparatus. Median incision of scalp was performed and the periosteum was cut open to expose bregma. Subsequently, a small hole with a diameter of 1 mm was perforated for needle insertion of microsyringe fixed on the stereotaxic apparatus with insertion depth of 5.8 mm (i.e to the position of caudate nucleus) at the site which was 1 mm rearward to the bregma and 3 mm left to the midline, and then 0.1 ml autoblood was injected slowly. Neurological functional defect score was immediately evaluated based on the evaluation criterion after the animal got conscious. The animal with behavior score less than 11 was selected in this study. Behavior score evaluation was continuously carried out after the establishment of model till the end of the experiment.
The neurologic function defect score was evaluated at 5 time points of 4 h, 12 h, 24 h, 48 h and 72 h after the model establishment. Changes of brain water content and histopathological observation were performed at 72 h after the model establishment on sacrificed rats.
Corresponding medicaments (2 mg/kg, bid) were administered through the caudal vein to animals with administration volume of 1 ml/100 g in each group after model animal was successfully established (according to the score less than 11 based on the behavior score evaluation), while the model group received physiological saline in the corresponding volume.
The brain was taken out immediately after the sacrifice of animals, and then […] ectocinerea (cortex was removed) at the edge of haematoma was collected. The brain water content was determined using dry and wet method based on the following formula: Brain water content=(wet weight−dry weight)/wet weight×100%
The brain was immediately taken out by decollation at selected time points, and it was sliced up to be 2 mm thick along the coronal section and then fixed in 10% formaldehyde. The slices were stained by regular HE and mounted. Then the pathological changes occurred in pathological region and the neighboring brain tissues were observed.
Evaluation was performed at the time of 4 h, 12 h, 24 h, 48 h and 72 h after surgery. The method was described as follows:
The flection of forelimbs was observed by lifting the rat by its tail. If the forelimbs symmetrically extended toward the floor, the score was 0. While if wrist flection, or elbow inflection, or internal rotation of shoulder, or both elbow inflection and internal rotation of shoulder occurred to forelimbs of the rat on the opposite side of the surgery part, it was evaluated as scores of 1, 2, 3 and 4, respectively.
The animal was placed on flat floor, and then both shoulders were pushed to move towards the opposite side to examine the resistance. If the resistances on both sides were equal and forceful, it was evaluated as 0. While if the resistance decreased slightly, mildly or severely when pushed to the opposite side of the surgery part, it was evaluated as 1, 2 or 3, respectively.
Both forelimbs of the animal were placed on a metal mesh to observe the muscular tension. The rat with equal and forceful muscular tension of both forelimbs was evaluated as 0. In the same way, the rat was evaluated as 1, 2 or 3, respectively with the reduction of muscular tension on the opposite side of the surgery part mentioned above.
The animal tended to keep turning around to one side was evaluated as 1. Based on the evaluation criterion (with full score of 11), the higher the score was evaluated, the more severe the behavior disorder was.

[2] = tested on: rabbit whole blood; experiment: in vitro whole blood anticoagulation assay; set-up: species or system white rabbit; conditions: for Test results (blood coagulation): room temperature 15 min
Experimental: TNHH was diluted to 4 mg/ml, 2 mg/ml, 1 mg/ml, 0.5 mg/ml respectively with phosphate buffer solution (10 mmol/L PB, 0.15 mol/L NaCl, pH7.4). Heparin sodium was prepared to 1 mg/ml with the same buffer solution.
Venous blood was taken from marginal ear vein of the rabbit, and rapidly added into 0#-5# tubes. 0.2 ml of the diluted TNHH samples with different concentrations was added into the 1#-4# tubes, respectively. 0.2 ml phosphate buffer solution was added into the 0# tube, which was used as a negative control. 0.2 ml heparin sodium (1 mg/ml) was added into the 5# tube, which was used as a positive control. The reagents were mixed rapidly and stored at room temperature for 15 min for observing the results.

[3] = target: thrombin (Homo sapiens, UniProt P00734); experiment: in vitro binding of TNHH to thrombin (SEC-HPLC); set-up: Human thrombin (127 Unit/ampoule), Lot No.: 20021105; purchased National Institute for The Control of Pharmaceutical and Biological Products Lot No.: 20021105; conditions: 37° C. 1 h
Experimental: Weigh TNHH, dilute to 1.0 mg/ml with phosphate buffer solution, and is ready for use; Weight fibrin precisely, dissolve and dilute to 0.1 mg/ml with phosphate buffer solution, and is ready for use; Weigh thrombin, dissolve and dilute to 100 units/ml with phosphate buffer solution, which is ready for use.
Following the below procedures, test materials were reacted at 37° C. for 1 h, and then analyzed under the following chromatographic conditions.
(1) pipette test material solutions (20 μl for each), loading for analysis, and recording each retention time.
(2) pipette fibrin and thrombin solutions (0.5 ml for each), mixing and reacting at 37° C. for 1 h, and loading 20 μl sample for analysis.
(3) pipette TNHH and fibrin solutions (0.5 ml for each), mixing and reacting at 37° C. for 1 h, and loading 20 μl sample for analysis.
(4) pipette TNHH and thrombin solutions (0.5 ml for each), mixing and reacting at 37° C. for 1 h, and loading 20 μl sample for analysis.
(5) pipette TNHH and mixture of fibrin and thrombin solutions (0.5 ml for each), mixing and reacting at 37° C. for 1 h, and loading 20 μl sample for analysis.
Flow rate 0.5 ml/min; detection wavelength: 214 nm, Column temperature: room temperature; chromatogram recording time: 25 min.

B1: TNHH: recombinant chimeric protein of neutrophil inhibitory factor and hirugen, Met-NIF-GGGGG-FPRPGSGG-Hirugen (SEQ ID NO: 3), expressed in E. coli (protein)
chain: MNEHNLRCPQNGTEMPGFNDSIRLQFLAMHNGYRSKLALGHISITEESESDDDDDFGFLPDFAPRASKMRYLEYDCEAEKSAYMSARNCSDSSSPPEGYDENKYIFENSNNISEAALKAMISWAKEAFNLNKTKEGEGVLYRSNHDISNFANLAWDAREKFGCAVVNCPLGEIDDETNHDGETYATTIHVVCHYPKINKTEGQPIYKVGTPCDDCSEYTKKADNTTSADPVCIPDDGVCFIGSKADYDSKEFYRFRELGGGGGFPRPGSGGNGDFEEIPEEYL
modifications: N-terminal Met
B1 was tested. Which behavioral score ([1]; 4 h) did it give?
The behavioral score was 2.00 ± 1.07.

And the behavioral score ([1]; 12 h)?
The behavioral score was 2.00 ± 0.76.

And the behavioral score ([1]; 24 h)?
The behavioral score was 2.25 ± 0.46.

And the behavioral score ([1]; 48 h)?
Its behavioral score is 2.12 ± 0.64.

And the “Brain water content (%)” value ([1]; 72 h, dry and wet method)?
The value was 78.28 ± 1.97 %.

And the behavioral score ([1]; 72 h)?
The behavioral score was 2.88 ± 1.46.

And the “Test results (blood coagulation)” value ([2]; 0.2 ml TNHH 0.5 mg/ml + 1.0 ml rabbit blood)?
Its value is “coagulated”.

And the “Test results (blood coagulation)” value ([2]; 0.2 ml TNHH 1 mg/ml + 1.0 ml rabbit blood)?
The value was “coag-”.

What about the “Test results (blood coagulation)” value ([2]; 0.2 ml TNHH 2 mg/ml + 1.0 ml rabbit blood) of the same molecule?
Its value is “coag-”.

And the “Test results (blood coagulation)” value ([2]; 0.2 ml TNHH 4 mg/ml + 1.0 ml rabbit blood)?
Its value is “coag-”.

And the “whole blood anticoagulation effects in vitro” value ([2]; TNHH 0.5-4 mg/ml)?
Its value is “no whole blood anticoagulation effects”.

And the blood coagulation ([2]; different concentrations of TNHH (0.5-4 mg/ml))?
The blood coagulation was “coagulated”.

And the binding with thrombin [3]?
Its binding with thrombin is “could bind with fibrin and thrombin”.
